These results are taken from US20150307599A1 (GARVAN INSTITUTE OF MEDICAL RESEARCH, published 2015).

A word on the Kd: it is the free concentration of one partner at which half of the binding sites on the other are occupied at equilibrium, for simple one-to-one binding. Read a high Kd as weaker binding. What is called koff is the rate constant with which the complex falls apart. Read a low koff as a long-lived complex. The kon is a measure of how fast the partners come together.

For experiment [1], the target named is T1, Peptide 3p6 (ala-NPFF).
T1 construct: Last 8 residues of NPFF on a poly-alanine helix
T1 peptide: AAAAAAAAAFLFQPQRF-NH2
Description: SPR (Biacore), FIG. 12. Here is the method:
(§1) Epitope mapping and determination of the affinity of MAb 5E12-B7 was also performed using a Biacore 2000 unit (GE Healthcare). Briefly, purified MAb 5E12-B7 was biotinylated as described above, except that the biotinylation reaction was performed at a 20:1 molar ratio of biotin:Ig. An SA-Chip (GE Healthcare) was docked into the Biacore 2000 unit and HBS-EP buffer (GE) was allowed to run over all 4 flow channels at 40 μL/min until signal had stabilized. The flow path was then switched to channel 4 only and HBS-EP containing 60 μg/mL biotinylated antibody was injected at 40 μL/min for 5 min to couple MAb 5E12-B7 to the chip via biotin-streptavidin binding. HBS-EP buffer was then run over channel 4 at 40 μL/min for over 30 min to remove all uncoupled Ig from the Biacore system then the flow path was changed to pass through all 4 flow channels. Association and dissociation of the peptides in Table 3 was measured using the Biacore Application Wizard. In each case, a baseline was established by passing HBS-EP over all 4 channels at 40 μL/min for 1 min before association was measure by injection of peptide (diluted to 1, 10, 100 or 1000 nM in HBS-EP) at 40 μL/min for 5 min. Dissociation was measured by allowing HBS-EP to pass over all 4 channels at 40 μL/min for 30 min. The kd, kₐ and KD were determined for each peptide by curve fitting using the BIAevalutation software.
For orientation: In SPR one partner is held on a chip, and binding of the other changes the refractive index at the surface.

Experiment [2] addresses T2, Peptide 3p7 (Brain Neuropeptide I).
T2 peptide: AGEGLSSPFWSLAAPQRF-NH2
Description: SPR (Biacore), FIG. 12. Here is the method: as §1

For experiment [3], the target named is T3, Peptide 3p8 (Poly alanine with last 4 residues NPFF).
T3 peptide: AAAAAAAAAAAAAPQRF-NH2
The experiment is described as follows: SPR (Biacore), FIG. 12. Here is the method: as §1

Experiment [4] has as its target T4, Peptide 1p16 (NPY last 17 residues Alanine Scan) (C-terminal amide (-NH2)).
T4 construct: NPY 25-mer with alanine at NPY residue 34
Description: indirect ELISA, peptide coated at 20 ug/mL, MAb at 1 ug/mL. Here is the method:
(§2) ELISA was used to map the reactivity of purified MAb 5E12-B7 against the peptides described in Table 3. Briefly, ELISA microwell plates (96-well Maxisorp, Nunc) were coated overnight at 4° C. with 50 μL of mapping peptides (Table 3) diluted to 20 μg/mL in carbonate coating buffer (CCB). Between each of the following steps, microwell plates were washed three times with PBST using a plate washer (BioTek). Coated wells were blocked with 200 μL PBS containing 5% w/v skim milk (Diploma). Blocked wells were incubated for 1 hr with 50 μL of MAb 5E12-B7 diluted to 1 μg/mL in skim milk/PBST. Wells were then incubated for 1 hr with 50 μL Peroxidase-conjugated AffiniPure F(ab)2 fragment goat anti-mouse secondary antibody (Jackson) diluted 1:5000 in skim milk/PBST. Ig binding was detected by incubation of wells with 50 μL TMB substrate (Becton Dickinson). Substrate reaction was stopped after 15 min with 50 μL 1M H₂SO₄ and O.D. 450 nm was measured.
In general terms: In an ELISA, binding on a coated surface is turned into a signal by an enzyme label.

The target of experiment [5] is T5, Peptide 1p17 (NPY last 17 residues Alanine Scan) (C-terminal amide (-NH2)).
T5 construct: NPY 25-mer with alanine at NPY residue 35
The experiment is described as above. The method, then:
as §2

In experiment [6] the target is T6, Peptide 1p18 (NPY last 17 residues Alanine Scan) (C-terminal amide (-NH2)).
T6 construct: NPY 25-mer with alanine at NPY residue 36
Described as above. Here is the method: as §2

For experiment [7], the target named is T7, Peptide 2p15 (Poly Ala with shrinking NPY C term).
T7 construct: 15 alanines followed by RY-amide
T7 peptide: AAAAAAAAAAAAAAARY-NH2
The experiment is described as above. The method, then:
as §2

Experiment [8] has as its target T8, Peptide 2p16 (Poly Ala with shrinking NPY C term).
T8 construct: 16 alanines followed by Y-amide
T8 peptide: AAAAAAAAAAAAAAAAY-NH2
The experiment is described as above. Here is the method:
as §2

In experiment [9] the target is T9, Peptide 2p17 (HBY with polyAlanine C terminus) (C-terminal amide (-NH2)).
T9 construct: HBY with four alanine residues added to the C-terminus
T9 peptide: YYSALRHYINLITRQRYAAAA
Described as above. Here is the method:
as §2

Experiment [10] deals with T10, NPY (mouse NPY, Phoenix) (mouse, C-terminal amide (-NH2)).
T10 construct: 36-residue whole peptide bought from Phoenix Peptides; also called mNPY; neuropeptide Y
Description: SPR (Biacore 2000), biotinylated MAb on SA chip, peptide in solution. The method, then:
as §1
(§3) The affinity of MAb 5E12-B7 to NPY, PYY and PP peptides was measured using a Biacore-2000 (GE-healthcare). Biotinylated MAb was loaded onto a single channel of a streptavidin chip, and dilute samples (1 nM-1 μM) of NPY, mPYY, hPYY, mPP and hPP were then run over all four channels of the chip to obtain blank-subtracted readings for peptide on and off-rates. Using this method, significant and/or detectable binding of MAb 5E12-B7 to NPY, mPYY and hPYY was detected. In contrast, no significant and/or detectable binding to mPP and hPP could be detected.

The target of experiment [11] is T11, human PYY (Phoenix) (human, C-terminal amide (-NH2)).
T11 construct: 36-residue whole peptide; also called hPYY
The description is as above. The method, then: as §1, §3

Where no end group is shown, it is not given here.

T11 sequence (peptide, as listed by the source): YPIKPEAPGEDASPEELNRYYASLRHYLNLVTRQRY

B1: MAb 5E12-B7 (antibody, V domains shown)
VH: QVQLQHPGTEVVKPGASVKLSCKASGYTFTNYWMHWVKQRPGQGLEWIGNIDPSNGGTNYNEKFKSKATLTVDKSSSTAYMQLSSLTSEDSAVYYCASFAYWGQGTLVTVSA
VL: DIQMTQSPASLSASVGETVTITCRASGNIHNYLAWYQQKQGKSPQLLVYNAKTLADGVPSRFSGSGSGTQYSLKISSLRPEDFGSYYCQHFWSPPFTFGSGTKLEIK
notes: Biotinylated for the Biacore and Octet assays; also called PYY/NPY antibody (5E12); anti-NPY/PYY antibody 5E12
As for B1, the binding result in experiment [1], in [2], in [3], in experiment [4], in experiment [5] and in [6] was “no binding” throughout. Besides, the binding result in [7], in experiment [8] and in experiment [9] was “no binding” throughout. Moreover, the figures for the Kd in experiment [10] and in experiment [11] were 9.79 nM and 5.97 nM, respectively. Moreover, the koff came to 0.00142 s⁻¹ in [10] and 0.00138 s⁻¹ in [11]. For the same molecule, the kon turned out to be 149000 M⁻¹ s⁻¹ in experiment [10] and 251000 M⁻¹ s⁻¹ in experiment [11].
